# Experimental data taken from patent US20230026259A1, “CA2 COMPOSITIONS AND METHODS FOR TUNABLE REGULATION” (Obsidian Therapeutics, Inc., priority 2019, published 2023).
# B1: OT-001661: constitutive CD40L control (protein)
# chain: MHMIETYNQTSPRSAATGLPISMKIFMYLLTVFLITQMIGSALFAVYLHRRLDKIEDERNLHEDFVFMKTIQRCNTGERSLSLLNCEEIKSQFEGFVKDIMLNKEETKKENSFEMQKGDQNPQIAAHVISEASSKTTSVLQWAEKGYYTMSNNLVTLENGKQLTVKRQGLYYIYAQVTFCSNREASSQAPFIASLCLKSPGRFERILLRAANTHSSAKPCGQQSIHLGGVFELQPGASVFVNVTDPSQVSHGTGFTSFGLLKL
# Test system: T cells
# Assay: CD40L expression of CA2 regulated CD40L constructs in T cells by FACS (dose response, time course)
# Type: cell-based
# Conditions: for CD40L positive / MFI: Ligand N/A; for CD40L MFI / Percentage CD40L positive cells: constitutive CD40L
# Source text: CD40L constructs regulated by Carbonic anhydrase DDs were generated and cloned into lentiviral vectors. Purified T cells were thawed and cultured with aCD3 aCD28 Dynabeads (in the ratio of 3 beads to 1 T cell).
# The constructs were transduced in T cells the next day. […]
molecule,measurement,setting,value
B1,CD40L positive,"Example 9, All Cells",98%
same,MFI,"Example 9, All Cells",20451
same,CD40L positive,"Example 9, CD4+",98.7%
same,MFI,"Example 9, CD4+",24489
same,CD40L positive,"Example 9, CD8+",97.8%
same,MFI,"Example 9, CD8+",14352
same,CD40L MFI,"time course 2 hours, CD4+",4042
same,Percentage CD40L positive cells,"time course 2 hours, CD4+",72.8%
same,CD40L MFI,"time course 2 hours, CD8+",2212
same,Percentage CD40L positive cells,"time course 2 hours, CD8+",56.9%
same,CD40L MFI,"time course 4 hours, CD4+",4651
same,Percentage CD40L positive cells,"time course 4 hours, CD4+",77%
same,CD40L MFI,"time course 4 hours, CD8+",2994
same,Percentage CD40L positive cells,"time course 4 hours, CD8+",63.2%
same,CD40L MFI,"time course 6 hours, CD4+",3156
same,Percentage CD40L positive cells,"time course 6 hours, CD4+",67.2%
same,CD40L MFI,"time course 6 hours, CD8+",1773
same,Percentage CD40L positive cells,"time course 6 hours, CD8+",48.5%
same,CD40L MFI,"time course 24 hours, CD4+",9491
same,Percentage CD40L positive cells,"time course 24 hours, CD4+",93.3%
same,CD40L MFI,"time course 24 hours, CD8+",3563
same,Percentage CD40L positive cells,"time course 24 hours, CD8+",71.2%
same,CD40L MFI,"time course 48 hours, CD4+",5639
same,Percentage CD40L positive cells,"time course 48 hours, CD4+",88.5%
same,CD40L MFI,"time course 48 hours, CD8+",2313
same,Percentage CD40L positive cells,"time course 48 hours, CD8+",71.1%
